Experimental data: article PMC6565748, “Environmental pH and peptide signaling control virulence of Streptococcus pyogenes via a quorum-sensing pathway” (Nature Communications, 2019)
Where a SMILES comes first, the peptide text is derived from it. Where no end group is shown, it is not given here. The star is where a group is joined. FITC = O=C1OC2(c3ccc(O)cc3Oc3cc(O)ccc32)c2ccc(NC(=S)*)cc21

Columns and labels:
[1] = tested on: SpeBM; test: SpeB protease activity assay with SpeBZ-C192S zymogen as substrate; format: biochemical, Streptococcus pyogenes; settings: SDS-PAGE; 0.25 mg/ml C192S zymogen, 0.1 µg mature SpeB, different buffer pH
Procedure: Purified C192S was added to a final concentration of 0.25 mg/ml in reaction mixture containing 0.1 µg of mature SpeB in different buffer pH conditions. Aliquots were collected at indicated time points and reaction was stopped by adding SDS gel-loading buffer. Proteolytic processing of C192S zymogen into mature form was visualized by SDS-PAGE.

[2] = molecular target: T1, RopB (Streptococcus pyogenes, UniProt Q9FB04); test: Fluorescence polarization (FP) assay of RopB binding to fluoresceinated SIP peptides; settings: Fig. 3c; compared to SIP (SIP-WT)
T1 sequence (Q9FB04 1-280): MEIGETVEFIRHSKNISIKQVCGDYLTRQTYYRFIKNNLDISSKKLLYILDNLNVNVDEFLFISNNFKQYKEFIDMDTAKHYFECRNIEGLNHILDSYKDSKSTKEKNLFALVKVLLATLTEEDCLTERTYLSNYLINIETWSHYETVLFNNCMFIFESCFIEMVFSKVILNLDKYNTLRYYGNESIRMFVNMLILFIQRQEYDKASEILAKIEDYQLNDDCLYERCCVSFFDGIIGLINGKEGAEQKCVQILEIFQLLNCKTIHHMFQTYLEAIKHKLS
Procedure: The coding regions of the full-length and C-terminal domain (RopB–CTD) (amino acids 56–280) of ropB gene of strain MGAS10870 were cloned into plasmids pET-28a and pET-21b, respectively. Protein was overexpressed in E. coli strain BL21 (DE3). Protein overexpression and purification for both full-length RopB and RopB–CTD were carried out as described previously[37],[68]. The proteins were purified to >95% homogeneity and concentrated to a final concentration of ~ 20 mg/ml.
(§1) Fluorescence polarization-based RopB-ligand binding experiments were performed with a Biotek microplate reader (Biotek) using the […] fluorescence of fluorescein labeled DNA or synthetic peptides. The polarization (P) of the labeled DNA or synthetic peptides increases as a function of protein binding, and equilibrium dissociation constants were determined from plots of millipolarization (P × 10^–3) against protein concentration. For RopB–DNA-binding studies, 1 nM 5′-fluoresceinated oligoduplex in binding buffer (20 mM Tris–HCl pH 8.5, 200 mM NaCl, 1 mM TCEP and 25% DMSO) was titrated against increasing concentrations of purified RopB and the resulting change in polarization measured. Samples were excited at 490 nm and emission measured at 530 nm. […]

[3] = tested on: speB expression in SIP* mutant strain; test: Synthetic peptide addition assay, speB transcript level by qRT-PCR in SIP* mutant strain; format: cell-based, Streptococcus pyogenes
Procedure: Synthetic peptides of high purity (>90% purity) obtained from Peptide 2.0 (Chantilly, VA) were suspended in 100% DMSO to prepare a 10 mM stock solution. Stock solutions were aliquoted and stored at −20 °C until use. Working stocks were prepared by diluting the stock solution in 25% DMSO.
GAS strains were grown to the indicated A600 and incubated with two volumes of RNAprotect (Qiagen) for 10 min at room temperature. RNA isolation and purification were performed with an RNeasy kit (Qiagen). After quality control analysis, cDNA was synthesized from the purified RNA using Superscript III (Invitrogen) and Taqman qRT-PCR was performed with an ABI 7500 Fast System (Applied Biosystems). Comparison of transcript levels was performed by the ∆CT method of analysis using tufA as the endogenous control gene[5],[78]. The primers and probes used for qRT-PCR are listed in Supplementary Table 2.

[4] = tested on: RopB–speB promoter interactions; test: FP assay of RopB–DNA binding in presence of SIP peptides; parameters: species or system Streptococcus pyogenes; settings: fluoresceinated oligoduplexes with RopB binding sites from speB promoter, RopB complexed with SIP peptide (Supplementary Fig. 8c, d)
Procedure: as §1, with “nm. The RopB-peptide-binding studies were performed in a peptide-binding buffer composed of 20 mM potassium phosphate pH 6.0, 75 mM Nacl, 2% DMSO, 1 mM EDTA and 0.0005% Tween 20. All data were plotted using KaleidaGraph and the resulting plots were fitted with the equation P = {(Pbound − Pfree)[protein]/(KD + [protein])} + Pfree, where P is the polarization measured at a given protein concentration, Pfree is the initial polarization of the free ligand, Pbound is the maximum polarization of specifically bound ligand and [protein] is the protein concentration. Nonlinear least squares analysis was used to determine Pbound, and Kd.” for “nm.”

[5] = molecular target: regulator of proteinase B (RopB), full-length, wild type; test: FP assay; settings: for Kd: parent: 13 ± 0.3 nM
[6] = molecular target: synthetic SIP variant SIP-L6A (Streptococcus pyogenes); test: fluorescence polarisation; fluorescein labeled synthetic peptide titrated with purified RopB protein; 20 mM potassium phosphate pH 6.0, 75 mM NaCl, 2% DMSO, 1 mM EDTA, 0.0005% Tween 20
[7] = molecular target: synthetic SIP peptide containing fluorescein modification at its amino-terminus (FITC-SIP); test: FP assay; settings: for Kd: parent: 6.3 ± 0.5 nM
[8] = molecular target: T2, regulator of proteinase B (RopB), full-length, wild type (Streptococcus pyogenes (strain …)); test: FP; pH 8.0
T2 chain: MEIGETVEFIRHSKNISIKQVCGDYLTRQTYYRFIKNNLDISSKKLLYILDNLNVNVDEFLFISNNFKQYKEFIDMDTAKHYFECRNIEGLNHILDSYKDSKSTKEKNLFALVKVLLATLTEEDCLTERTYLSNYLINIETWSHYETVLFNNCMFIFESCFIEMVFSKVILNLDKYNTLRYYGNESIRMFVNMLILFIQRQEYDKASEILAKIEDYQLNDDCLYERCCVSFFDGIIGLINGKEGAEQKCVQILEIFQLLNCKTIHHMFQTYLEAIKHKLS

[9] = molecular target: T2, regulator of proteinase B (RopB), …; test: FP; pH 6.5
[10] = molecular target: T2, regulator of proteinase B (RopB), …; test: FP; pH 9.0
[11] = molecular target: T2, regulator of proteinase B (RopB), …; test: FP; pH 7.0
[12] = molecular target: T2, regulator of proteinase B (RopB), …; test: FP; pH 6.0
[13] = molecular target: T2, regulator of proteinase B (RopB), …; test: FP; pH 5.5
[14] = molecular target: T2, regulator of proteinase B (RopB), …; test: FP; pH 7.5
[15] = molecular target: T2, regulator of proteinase B (RopB), …; test: FP; pH 8.5

## CC(C)C[C@H](NC(=O)[C@H]1O[C@@H]1C(=O)O)C(=O)NCCCCN=C(N)N [E64]
[1]
  Proteolytic cleavage of SpeBZ-C192S by SpeBM: inhibited

## CSCC[C@H](N)C(=O)N[C@@H](Cc1c[nH]c2ccccc12)C(=O)N[C@@H](CC(C)C)C(=O)N[C@@H](CC(C)C)C(=O)N[C@@H](CC(C)C)C(=O)N[C@@H](C)C(=O)N[C@@H](Cc1ccccc1)C(=O)N[C@@H](CC(C)C)C(=O)O [SIP-L6A] (H-MWLLLAFL-OH; N-terminus and C-terminus assumed)
[2]
  Fold change reduction in Kd: ~ 2.7
[3]; SIP addition assay, SIP* mutant strain, reference DMSO-supplemented strain (Fig. 3d)
  Ability to activate RopB-dependent speB expression: partial activity
[4]
  Effect on RopB–promoter (operator sequence) interactions: WT-like binding to operator sequences

## CSCC[C@H](N)C(=O)N[C@@H](Cc1c[nH]c2ccccc12)C(=O)N[C@@H](CC(C)C)C(=O)N[C@@H](CC(C)C)C(=O)N[C@@H](CC(C)C)C(=O)N[C@@H](CC(C)C)C(=O)N[C@@H](Cc1ccccc1)C(=O)N[C@@H](CC(C)C)C(=O)O [SIP] (H-MWLLLLFL-OH; N-terminus and C-terminus assumed)
[3]; SIP* mutant strain at A600 ~1.7, THY broth adjusted to different pH, synthetic SIP, 1 h, relative to unsupplemented strain
  SIP-dependent speB expression (speB transcript level): maximal within a very narrow pH range (pH 5.5–6.0)
[3]; SIP* mutant strain, THY pH 8, SIP added even at 100-fold excess, 1 h
  Ability to induce speB expression: lost the ability to induce speB expression

## SpeB-inducing peptide (SIP), synthetic, unmodified F7A
[5]
  ratio to parent: 11
  Kd: 142 nM

## SpeB-inducing peptide (SIP), synthetic, unmodified L3A
[5]
  ratio to parent: 41
  Kd: 534 nM

## SpeB-inducing peptide (SIP), synthetic, unmodified L4A
[5]
  ratio to parent: 27
  Kd: 358 nM

## SpeB-inducing peptide (SIP), synthetic, unmodified L5A
[5]
  ratio to parent: 48
  Kd: 625 nM

## SpeB-inducing peptide (SIP), synthetic, unmodified L6A
[5]
  Kd: 36 nM

## SpeB-inducing peptide (SIP), synthetic, unmodified L8A
[5]
  ratio to parent: 8
  Kd: 106 nM

## SpeB-inducing peptide (SIP), synthetic, unmodified M1A
[5]
  ratio to parent: 20
  Kd: 259 nM

## SpeB-inducing peptide (SIP), synthetic, unmodified W2A
[5]
  ratio to parent: 44
  Kd: 570 nM

## regulator of proteinase B (RopB), full-length, wild type (receptor)
[6]
  fold reduction in binding affinity compared to SIP: 2.7 fold

## regulator of proteinase B (RopB), full-length, wild type F155A
[7]
  ratio to parent: 5
  Kd: 33 nM

## regulator of proteinase B (RopB), full-length, wild type M267A
[7]
  ratio to parent: 44
  Kd: 283 nM

## regulator of proteinase B (RopB), full-length, wild type N152A
[7]
  ratio to parent: 28
  Kd: 243 nM

## regulator of proteinase B (RopB), full-length, wild type N192A
[7]
  ratio to parent: 72
  Kd: 462 nM

## regulator of proteinase B (RopB), full-length, wild type R188A
[7]
  ratio to parent: 67
  Kd: 429 nM

B1: synthetic SIP peptide containing fluorescein modification at its amino-terminus (FITC-SIP) (peptide)
chain: {FITC}-MWLLLLFL
[8]
  Kd: 78.6 nM
[9]
  Kd: 2.9 nM
[10]
  Kd: 320 nM
[11]
  Kd: 11.8 nM
[12]
  Kd: 1.8 nM
[13]
  Kd: 5.4 nM
[14]
  Kd: 42.1 nM
[15]
  Kd: 222 nM
